Ends that are not written are not given here. Peptide text beside a SMILES is read from it. * marks the point of attachment. 5TAMRA = CN(C)c1ccc2c(c1)Oc1cc(N(C)C)ccc1C21OC(=O)c2cc(C(=O)*)ccc21
How the values were obtained:
[1] = biological target: T1, LRP-1 purified from human placenta (Homo sapiens, UniProt Q07954); assay: SPR binding to immobilized LRP-1 (Biacore 3000, CM5 chip); settings: unlabeled peptide, 0.25-4 μM, 5 μL/min, 25°C, HEPES buffer pH 7.4, Langmuir 1:1 global fit
T1 construct: LRP-1 was purified from human placenta according to a previously described protocol; from tissue; host or cells: human placenta
T1 sequence (Q07954 20-4544): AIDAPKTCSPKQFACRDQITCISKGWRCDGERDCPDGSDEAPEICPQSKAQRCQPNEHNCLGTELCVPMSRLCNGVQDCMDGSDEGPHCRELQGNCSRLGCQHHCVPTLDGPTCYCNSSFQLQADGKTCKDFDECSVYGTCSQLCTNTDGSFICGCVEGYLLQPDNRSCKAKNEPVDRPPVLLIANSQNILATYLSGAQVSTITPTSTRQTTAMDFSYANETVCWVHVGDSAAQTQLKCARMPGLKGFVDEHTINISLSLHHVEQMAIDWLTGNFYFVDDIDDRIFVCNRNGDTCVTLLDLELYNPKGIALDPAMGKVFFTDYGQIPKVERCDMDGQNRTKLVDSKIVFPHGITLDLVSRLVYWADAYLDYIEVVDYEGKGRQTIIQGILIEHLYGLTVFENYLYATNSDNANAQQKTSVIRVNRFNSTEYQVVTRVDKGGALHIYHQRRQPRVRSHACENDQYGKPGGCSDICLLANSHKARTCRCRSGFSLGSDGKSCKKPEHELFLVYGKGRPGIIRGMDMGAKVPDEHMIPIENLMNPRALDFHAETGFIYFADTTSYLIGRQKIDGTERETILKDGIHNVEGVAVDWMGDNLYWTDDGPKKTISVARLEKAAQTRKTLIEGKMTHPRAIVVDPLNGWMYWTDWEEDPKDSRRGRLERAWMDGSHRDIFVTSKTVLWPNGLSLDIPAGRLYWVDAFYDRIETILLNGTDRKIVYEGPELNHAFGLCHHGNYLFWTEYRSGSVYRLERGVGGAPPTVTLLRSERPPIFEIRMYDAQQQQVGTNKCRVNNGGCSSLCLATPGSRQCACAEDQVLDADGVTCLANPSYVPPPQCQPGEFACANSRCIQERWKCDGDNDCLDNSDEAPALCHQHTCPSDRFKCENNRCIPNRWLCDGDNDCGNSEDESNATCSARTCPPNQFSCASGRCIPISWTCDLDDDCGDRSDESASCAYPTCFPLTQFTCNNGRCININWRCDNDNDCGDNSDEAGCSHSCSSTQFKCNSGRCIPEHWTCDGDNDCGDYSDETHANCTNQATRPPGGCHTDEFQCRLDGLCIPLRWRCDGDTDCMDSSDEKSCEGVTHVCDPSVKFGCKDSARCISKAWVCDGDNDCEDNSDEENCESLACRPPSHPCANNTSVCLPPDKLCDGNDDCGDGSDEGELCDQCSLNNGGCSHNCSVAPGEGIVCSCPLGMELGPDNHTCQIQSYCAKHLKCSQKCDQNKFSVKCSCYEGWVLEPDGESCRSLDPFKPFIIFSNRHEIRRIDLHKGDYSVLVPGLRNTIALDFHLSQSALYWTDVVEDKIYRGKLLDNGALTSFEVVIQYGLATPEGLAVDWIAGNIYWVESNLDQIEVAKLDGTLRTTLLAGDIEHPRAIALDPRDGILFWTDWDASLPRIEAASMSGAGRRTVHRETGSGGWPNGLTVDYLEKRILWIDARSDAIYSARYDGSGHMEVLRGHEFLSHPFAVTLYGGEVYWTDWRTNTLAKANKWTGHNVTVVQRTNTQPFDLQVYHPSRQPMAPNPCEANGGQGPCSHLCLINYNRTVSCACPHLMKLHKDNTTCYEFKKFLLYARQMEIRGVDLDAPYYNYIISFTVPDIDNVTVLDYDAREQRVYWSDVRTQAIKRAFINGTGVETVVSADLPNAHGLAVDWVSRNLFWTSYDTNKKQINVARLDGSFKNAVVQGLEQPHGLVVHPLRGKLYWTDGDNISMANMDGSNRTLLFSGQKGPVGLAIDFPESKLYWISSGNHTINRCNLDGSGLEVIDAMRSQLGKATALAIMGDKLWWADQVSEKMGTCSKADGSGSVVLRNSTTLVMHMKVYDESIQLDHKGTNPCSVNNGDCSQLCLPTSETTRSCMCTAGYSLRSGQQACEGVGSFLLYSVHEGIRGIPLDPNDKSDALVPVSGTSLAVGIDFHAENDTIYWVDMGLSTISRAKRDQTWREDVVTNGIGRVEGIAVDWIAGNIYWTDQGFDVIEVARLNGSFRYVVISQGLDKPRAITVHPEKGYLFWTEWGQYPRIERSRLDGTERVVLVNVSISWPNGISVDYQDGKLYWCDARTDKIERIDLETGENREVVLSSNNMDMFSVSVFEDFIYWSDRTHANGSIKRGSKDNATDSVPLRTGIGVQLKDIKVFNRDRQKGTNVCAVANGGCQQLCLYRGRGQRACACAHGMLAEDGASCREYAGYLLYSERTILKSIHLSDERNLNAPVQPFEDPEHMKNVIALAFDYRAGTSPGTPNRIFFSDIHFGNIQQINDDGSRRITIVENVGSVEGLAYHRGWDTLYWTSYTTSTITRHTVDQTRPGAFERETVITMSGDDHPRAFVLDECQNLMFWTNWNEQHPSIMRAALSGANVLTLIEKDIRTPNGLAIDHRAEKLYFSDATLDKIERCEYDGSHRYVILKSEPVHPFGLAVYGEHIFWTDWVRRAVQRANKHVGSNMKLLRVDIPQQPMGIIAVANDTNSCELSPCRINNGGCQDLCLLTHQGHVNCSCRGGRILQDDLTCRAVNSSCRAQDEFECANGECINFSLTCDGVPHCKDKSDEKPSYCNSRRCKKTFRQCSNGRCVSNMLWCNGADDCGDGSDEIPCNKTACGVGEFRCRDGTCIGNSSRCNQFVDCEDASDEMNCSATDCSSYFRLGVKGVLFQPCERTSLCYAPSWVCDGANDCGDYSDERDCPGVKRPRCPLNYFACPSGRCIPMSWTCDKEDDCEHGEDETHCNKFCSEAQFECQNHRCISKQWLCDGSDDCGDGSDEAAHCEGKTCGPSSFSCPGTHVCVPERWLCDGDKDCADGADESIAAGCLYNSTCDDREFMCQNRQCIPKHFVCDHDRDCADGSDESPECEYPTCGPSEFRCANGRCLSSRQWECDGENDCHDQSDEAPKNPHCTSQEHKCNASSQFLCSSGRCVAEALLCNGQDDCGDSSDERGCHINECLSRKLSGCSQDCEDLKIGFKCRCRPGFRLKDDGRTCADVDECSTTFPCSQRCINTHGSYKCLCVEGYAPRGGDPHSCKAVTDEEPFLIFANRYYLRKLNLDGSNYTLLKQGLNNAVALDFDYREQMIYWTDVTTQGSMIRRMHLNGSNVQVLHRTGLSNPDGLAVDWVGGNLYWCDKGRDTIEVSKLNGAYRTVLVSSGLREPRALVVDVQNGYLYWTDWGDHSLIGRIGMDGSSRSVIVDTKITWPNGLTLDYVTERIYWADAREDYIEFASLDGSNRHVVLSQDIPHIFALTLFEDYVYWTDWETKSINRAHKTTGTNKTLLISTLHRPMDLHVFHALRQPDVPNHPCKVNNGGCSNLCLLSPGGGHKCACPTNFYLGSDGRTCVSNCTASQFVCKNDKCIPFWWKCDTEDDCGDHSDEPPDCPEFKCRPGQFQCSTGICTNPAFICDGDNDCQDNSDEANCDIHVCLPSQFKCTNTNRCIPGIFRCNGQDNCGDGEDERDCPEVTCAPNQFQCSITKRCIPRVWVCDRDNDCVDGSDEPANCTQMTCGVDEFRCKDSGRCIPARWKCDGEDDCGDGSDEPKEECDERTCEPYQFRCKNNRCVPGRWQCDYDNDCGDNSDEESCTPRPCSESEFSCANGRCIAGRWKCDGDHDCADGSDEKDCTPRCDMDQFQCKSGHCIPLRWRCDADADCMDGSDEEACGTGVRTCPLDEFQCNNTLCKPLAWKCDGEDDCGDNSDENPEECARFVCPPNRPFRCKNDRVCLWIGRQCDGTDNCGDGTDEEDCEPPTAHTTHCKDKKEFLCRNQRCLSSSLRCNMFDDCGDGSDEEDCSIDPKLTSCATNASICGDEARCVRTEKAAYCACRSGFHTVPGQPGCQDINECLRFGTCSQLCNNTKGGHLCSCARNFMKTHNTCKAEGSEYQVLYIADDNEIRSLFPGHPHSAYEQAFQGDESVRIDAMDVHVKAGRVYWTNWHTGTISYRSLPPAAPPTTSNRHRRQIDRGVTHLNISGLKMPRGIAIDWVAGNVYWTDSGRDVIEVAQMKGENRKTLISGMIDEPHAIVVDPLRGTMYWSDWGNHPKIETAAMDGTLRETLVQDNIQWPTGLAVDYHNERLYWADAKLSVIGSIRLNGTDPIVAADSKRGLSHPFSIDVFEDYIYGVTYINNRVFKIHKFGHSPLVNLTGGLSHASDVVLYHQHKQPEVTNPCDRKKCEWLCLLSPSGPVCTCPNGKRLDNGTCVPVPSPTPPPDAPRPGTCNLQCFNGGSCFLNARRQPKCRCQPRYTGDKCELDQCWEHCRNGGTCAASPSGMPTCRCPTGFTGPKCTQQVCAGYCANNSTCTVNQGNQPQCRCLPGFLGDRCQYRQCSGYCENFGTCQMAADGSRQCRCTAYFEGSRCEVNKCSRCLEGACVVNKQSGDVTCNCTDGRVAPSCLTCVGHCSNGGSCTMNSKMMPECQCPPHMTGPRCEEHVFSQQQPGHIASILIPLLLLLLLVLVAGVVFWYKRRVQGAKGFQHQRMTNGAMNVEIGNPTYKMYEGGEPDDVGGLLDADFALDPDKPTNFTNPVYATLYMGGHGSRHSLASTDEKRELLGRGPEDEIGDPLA
Method: (§1) The binding affinity analysis of the MTf and GYR peptides was performed using the Biacore 3000 system (Cytiva, UK) equipped with a CM5 sensor chip. The sensor chip was initially activated by injection of 0.2 M 1-ethyl-3-(3-dimethylaminopropyl) carbodiimide hydrochloride and 0.05 M N-hydroxysuccinimide in water. Recombinant human and mouse TfR protein (SinoBiological, Inc., Beijing, PRC) was purchased with a His-tag and immobilized on the sensor chip at 58 fmol/mm^2. LRP-1 was purified from human placenta according to a previously described protocol and immobilized to densities of 0.025 fmol/mm^2. The remaining carboxylate groups were blocked with 1 M ethanolamine. The MTf and GYR peptides were injected for binding to the immobilized TfR or LRP-1 protein at 5 μL/min at 25°C in 10 mM HEPES, 150 mM NaCl, 1.5 mM CaCl2, 1 mM EGTA, and 0.005% Tween 20 (pH 7.4) at five different concentrations (0.25 μM, 0.5 μM, 1 μM, 2 μM and 4 μM). The reference flow channel (FC1) was activated and blocked but without immobilized TfR or LRP-1. The dissociation constant (KD) values were calculated using the BIAevaluation 4.1 software (Cytiva, UK) using the predefined Langmuir 1:1 interaction model and fitted using a drifting baseline with global fitting to the curves of the considered concentration range.

bEnd.3 cells = assay: Translocation study based on fluorescence intensity measurement (Transwell, non-contact co-culture with rat astrocytes); format: in vitro ADME, mouse; settings: for Pe ("real" endothelial permeability): 1/Pe = 1/Papp,bEnd.3+filter − 1/Papp,filter, fluorescence; for Papp,F (apparent permeability through filter): cell-free collagen-coated polyester Transwell filter, 0.4 μm pores, fluorescence Ex 535/Em 585 nm
Method: (§2) For the translocation studies, an in vitro contact and non-contact co-culture model was used. Forty thousand bEnd.3 cells were seeded on the upper side of the collagen-coated Transwell insert and maintained in cDMEM for 24 hours (contact co-culture) or immediately transferred into a 12-well plate in which rat astrocytes were grown for at least three weeks (non-contact co-culture). In the case of contact co-culture, 24 hours after plating the bEnd.3 approx. 150,000 rat astrocytes were seeded on the bottom side of the flipped Transwell inserts, which was coated with 5 μg/ml poly-L-lysine (P1524, Sigma-Aldrich), and incubated for 2 hours at 37°C. The inserts were then flipped back to the original side and placed into a 12-well plate with rat astrocytes. The cells were cultured in cDMEM at 37°C with 5% CO2/95% air and saturated humidity, and the experiments were performed 4.5–5 days post-seeding of bEnd.3 cells. The medium was switched to phenol red-free cDMEM the day before the experiment.
(§3) These experiments were performed using the bEnd.3 cells that were cultured with rat astrocytes in a non-contact co-culture model and with cell-free filters as negative controls. On the day of the experiment, the inserts were transferred to a new astrocyte-free 12-well plate, and the medium was changed on both the apical and basolateral sides. The apical side of the membrane was exposed to 10 μM MTfp or GYR for 2 hours while the plates were gently shaken to overcome unstirred water-layer effects. After the 2 hours exposure time, 150 μL sample was taken from both apical and basolateral compartments, and the fluorescence intensity was read by a CLARIOstar® Plus microplate reader (BMG Labtech) (λExc = 535 nm, λEm = 585 nm, Bandwidth = 20 and 30 nm, respectively). The translocation of the peptides is presented as permeability coefficient (a concentration independent transport parameter) and was determine by using the clearance principle.
(§4) The following equations [27] were used to calculate the permeability coefficient: Papp[cm/s]=B/T⋅vb/A⋅t⋅60 (1) Where Papp is the apparent permeability, B is the relative fluorescence unit (RFU) at time t, T is the top chamber RFU at time 0 (constant), Vb is the volume of the bottom channel [ml], A is the cross-section area of the membrane [cm^2], and t is the time [min].
(§5) The translocation experiments were performed three times in technical triplicates, and the data are represented as mean (SD).

[2] = biological target: T2, Recombinant mouse TfR protein (mTfR) (Mus musculus, UniProt Q62351); assay: SPR binding to immobilized mouse TfR (Biacore 3000, CM5 chip); settings: unlabeled peptide, 0.25-4 μM, 25°C, pH 7.4, Langmuir 1:1 global fit
T2 construct: His-tag; purchased SinoBiological, Inc., Beijing, PRC
Method: as §1

[3] = Translocation study based on fluorescence intensity measurement (Transwell, non-contact co-culture with rat astrocytes); format: in vitro ADME, mouse; settings: mouse; bEnd.3 non-contact co-culture with rat astrocytes, polyester Transwell 0.4 μm; 10 μM apical, 2 h, shaken, apical to basolateral; fluorescence (RFU values) Ex 535/Em 585 nm; mean (SD) of three independent experiments with triplicates; read-out: Papp, bEnd.3+F (apparent permeability through bEnd.3 grown on filter)
Method: as §2, §3, §4, §5

[4] = 10 μM apical, 2 h, mean (SD) of three independent experiments with triplicates
[5] = 10 μM apical, 2 h, shaken, apical to basolateral, mean (SD) of three independent experiments with triplicates
[6] = alternative calculation, 10 μM apical, 120 min

Molecule	Kd [1] [nM]	Pe ("real" endothelial permeability) (bEnd.3 cells; [4])	Papp,F (apparent permeability through filter) (bEnd.3 cells; [5])	further results
FRCLVENRGDVPFVTRIR-NH2 [MTfp]	0.57			
GYRPVHNIRGHWAPGK-NH2 [GYR]	100			Remaining peptide most likely trapped inside the filter membrane or in the endothelial cell layer (bEnd.3 cells; 100% minus collected): 1.7%; Kd [2]: 1 mM
CC[C@H](C)[C@H](NC(=O)[C@H](CCCNC(=N)N)NC(=O)[C@@H](NC(=O)[C@@H](NC(=O)[C@H](Cc1ccccc1)NC(=O)[C@@H]1CCCN1C(=O)[C@@H](NC(=O)[C@H](CC(=O)O)NC(=O)CNC(=O)[C@H](CCCNC(=N)N)NC(=O)[C@H](CC(N)=O)NC(=O)[C@H](CCC(=O)O)NC(=O)[C@@H](NC(=O)[C@H](CC(C)C)NC(=O)[C@H](CS)NC(=O)[C@H](CCCNC(=N)N)NC(=O)[C@H](Cc1ccccc1)NC(=O)c1ccc2c(c1)C(=O)OC21c2ccc(N(C)C)cc2Oc2cc(N(C)C)ccc21)C(C)C)C(C)C)C(C)C)[C@@H](C)O)C(=O)N[C@@H](CCCNC(=N)N)C(N)=O [MTfp-TAMRA] (5TAMRA-FRCLVENRGDVPFVTRIR-NH2)		4.57 (0.64) x 10^−6 cm/s	5.86 (1.27) x 10^−6 cm/s	Papp A→B at 2 h, 10 µM [3]: 2.55 ×10⁻⁶ cm/s
CC[C@H](C)[C@H](NC(=O)[C@H](CC(N)=O)NC(=O)[C@H](Cc1c[nH]cn1)NC(=O)[C@@H](NC(=O)[C@@H]1CCCN1C(=O)[C@H](CCCNC(=N)N)NC(=O)[C@H](Cc1ccc(O)cc1)NC(=O)CN)C(C)C)C(=O)N[C@@H](CCCNC(=N)N)C(=O)NCC(=O)N[C@@H](Cc1c[nH]cn1)C(=O)N[C@@H](Cc1c[nH]c2ccccc12)C(=O)N[C@@H](C)C(=O)N1CCC[C@H]1C(=O)NCC(=O)N[C@@H](CCCCNC(=O)c1ccc2c(c1)C(=O)OC21c2ccc(N(C)C)cc2Oc2cc(N(C)C)ccc21)C(N)=O [GYR-TAMRA] (H-GYRPVHNIRGHWAPGK(5TAMRA)-NH2)		15.17 (1.83) x 10^−6 cm/s	12.82 (3.11) x 10^−6 cm/s	Papp (bEnd.3 + filter), calculated concentrations based on a standard curve (bEnd.3 cells; [6]): 6.71e-06 cm/s; Papp (bEnd.3 + filter), calculated final basal concentration and the 10 µM initial apical concentration (bEnd.3 cells; [6]): 6.31e-06 cm/s; Papp, bEnd.3+F (apparent permeability through bEnd.3 grown on filter) (bEnd.3 cells; bEnd.3 non-contact co-culture with rat astrocytes, polyester Transwell 0.4 μm, 10 μM apical, 2 h, shaken, apical to basolateral, fluorescence (RFU values) Ex 535/Em 585 nm, mean (SD) of three independent experiments with triplicates): 6.64 (1.16) x 10^−6 cm/s
